pKd: −log10 of the molar value.

In experiment [1] the target is recombinant human TNFα (human) (UniProt P01375). Briefly: SPR. (In SPR one partner is held on a chip, and binding of the other changes the refractive index at the surface.)
Experiment [2] addresses human FcγRIIIa receptor, V158 variants (human).
The next experiment has as its target Golimumab A (human). Briefly: SPR; Biacore T200; anti-human Fc antibody immobilised on a CM5 chip, golimumab captured, TNFα as analyte at five concentrations (7.81–125 nM), 30 μL/min, 25°C, 1:1 Langmuir model, KD = Kd/Ka.
The next experiment concerns the target Golimumab B (human). The experiment is described as above.

What is called koff is the first-order rate constant of dissociation. Take Golimumab B (from UniProt P01857): in experiment [1], the koff is 0.000149 s⁻¹. Same read-out and setting: with Golimumab A (from UniProt P01857) the figure was 0.000164 s⁻¹. Golimumab B (antibody): the ADCC reporter gene assay, EC50 (Jurkat NFAT-luciferase cells with FcγRIIIa V158 as effector cells, CHO-K1/hmTNFα as target cells) in experiment [2] is 0.152 µg/mL. As usually defined, the pKd is the Kd on a negative log10 scale, so that one unit is a factor of ten. A high value points to a small Kd. In the case of “recombinant human TNFα (from UniProt P01375 77-233) (ligand)”, the pKd with Golimumab A (human) was 10.91; with Golimumab B (human) it was 10.97. Substance Golimumab A (antibody) displayed an ADCC reporter gene assay, EC50 (Jurkat NFAT-luciferase cells with FcγRIIIa V158 as effector cells, CHO-K1/hmTNFα as target cells) in experiment [2] of 0.15 µg/mL.

Source of the values: publication PMC9017650.
